One assay has as its target T1, 3×-FLAG-RNF213 (Homo sapiens (Human), UniProt Q63HN8 1-5207, phosphotyrosine at Y1275 (found by MS in cells; phosphorylated by ABL1 in vitro)).
T1 construct: Expressed from pcDNA5-3x-FLAG-RNF213; also called WT-RNF213; wild type RNF213; not shown: 3×-FLAG tag
The assay is described as follows: co-immunoprecipitation/immunoblot (FIG. 2D). In general terms: A western blot detects proteins with antibodies after separation by electrophoresis.

Another assay deals with T2, RNF213-TurboID (Homo sapiens (Human), UniProt Q63HN8 1-5207).
T2 construct: Recombined into HeLa FlpIn-TRex RNF213-KO cells; proximity-labelling bait; also called C-Turbo; 3×-FLAG-RNF213-TurboID; not shown: 3×-FLAG tag; TurboID biotin ligase at the C-terminus
The assay is described as follows: TurboID proximity biotinylation, streptavidin recovery, MS, SAINT express (FIG. 2B). On the procedure:
RNF213-interacting proteins were identified to evaluate how RNF213 regulates hypoxia sensitivity (FIG. 2A). TurboID-RNF213 (“N-Turbo”), RNF213-TurboID (“C-Turbo”), or TurboID alone (Control Turbo) were recombined into HeLa FlpIn-TRex RNF213-KO cells. These cells were labelled with biotin for 10 min., and biotinylated proteins were recovered on streptavidin, digested with trypsin, and analyzed by MS (FIG. 2A). Proteins were ranked as potential binding partners by using the SAINT express algorithm³⁶ Immunoblotting (FIG. 9A) and silver staining (FIG. 9B) confirmed that similar amounts of each sample were submitted for analysis. Relatively few proteins labelled by N-Turbo were labelled to an extent greater than their labeling by Control-Turbo (FIG. 9C). […] Among the other top candidates were the major K63-deubiquitinase and NF-κB regulator CYLD and its interacting protein SPATA2 (FIG. 2B, orange-colored arrows). […] Other top C-Turbo interactors included proteins involved in VEGF signaling, which is induced in hypoxia (FLII, MYOF^{39,40}), inflammation and atherosclerosis (MAP4K4, SPTLC1^{41,42}), lipotoxicity (SPTLC1, ALDH1B1^{43,44}), ischemia response (CPEB4⁴⁵), and stroke (SARS2⁴⁶). Top N-Turbo interactors included CYP51A1, which plays a crucial role in cholesterol metabolism and atherosclerosis⁴⁷.
Cells were cultured in standard media but with 10% tetracycline (Tet)-free FBS (Clonetech) for at least 1 week. Tet-free/biotin-free FBS was generated by incubating Tet-free FBS with sterile streptavidin beads overnight followed by centrifugation to remove the beads. N-Turbo, C-Turbo, and Turbo proteins were induced by adding 1 μg/ml Dox to cells for 36 hours. For the last ten min. of incubation, 500 μM of biotin was added to the medium.

A further assay addresses T3, TurboID-RNF213 (Homo sapiens (Human), UniProt Q63HN8 1-5207).
T3 construct: Recombined into HeLa FlpIn-TRex RNF213-KO cells; proximity-labelling bait; also called N-Turbo; not shown: TurboID biotin ligase at the N-terminus
The assay can be described thus: TurboID proximity biotinylation, streptavidin recovery, MS, SAINT express (FIG. 9C). On the procedure:
RNF213-interacting proteins were identified to evaluate how RNF213 regulates hypoxia sensitivity (FIG. 2A). TurboID-RNF213 (“N-Turbo”), RNF213-TurboID (“C-Turbo”), or TurboID alone (Control Turbo) were recombined into HeLa FlpIn-TRex RNF213-KO cells. These cells were labelled with biotin for 10 min., and biotinylated proteins were recovered on streptavidin, digested with trypsin, and analyzed by MS (FIG. 2A). Proteins were ranked as potential binding partners by using the SAINT express algorithm³⁶ Immunoblotting (FIG. 9A) and silver staining (FIG. 9B) confirmed that similar amounts of each sample were submitted for analysis. Relatively few proteins labelled by N-Turbo were labelled to an extent greater than their labeling by Control-Turbo (FIG. 9C). […] Among the other top candidates were the major K63-deubiquitinase and NF-κB regulator CYLD and its interacting protein SPATA2 (FIG. 2B, orange-colored arrows). […] Other top C-Turbo interactors included proteins involved in VEGF signaling, which is induced in hypoxia (FLII, MYOF^{39,40}), inflammation and atherosclerosis (MAP4K4, SPTLC1^{41,42}), lipotoxicity (SPTLC1, ALDH1B1^{43,44}), ischemia response (CPEB4⁴⁵), and stroke (SARS2⁴⁶). Top N-Turbo interactors included CYP51A1, which plays a crucial role in cholesterol metabolism and atherosclerosis⁴⁷. […]

T1 sequence (Q63HN8 whole entry N1045D): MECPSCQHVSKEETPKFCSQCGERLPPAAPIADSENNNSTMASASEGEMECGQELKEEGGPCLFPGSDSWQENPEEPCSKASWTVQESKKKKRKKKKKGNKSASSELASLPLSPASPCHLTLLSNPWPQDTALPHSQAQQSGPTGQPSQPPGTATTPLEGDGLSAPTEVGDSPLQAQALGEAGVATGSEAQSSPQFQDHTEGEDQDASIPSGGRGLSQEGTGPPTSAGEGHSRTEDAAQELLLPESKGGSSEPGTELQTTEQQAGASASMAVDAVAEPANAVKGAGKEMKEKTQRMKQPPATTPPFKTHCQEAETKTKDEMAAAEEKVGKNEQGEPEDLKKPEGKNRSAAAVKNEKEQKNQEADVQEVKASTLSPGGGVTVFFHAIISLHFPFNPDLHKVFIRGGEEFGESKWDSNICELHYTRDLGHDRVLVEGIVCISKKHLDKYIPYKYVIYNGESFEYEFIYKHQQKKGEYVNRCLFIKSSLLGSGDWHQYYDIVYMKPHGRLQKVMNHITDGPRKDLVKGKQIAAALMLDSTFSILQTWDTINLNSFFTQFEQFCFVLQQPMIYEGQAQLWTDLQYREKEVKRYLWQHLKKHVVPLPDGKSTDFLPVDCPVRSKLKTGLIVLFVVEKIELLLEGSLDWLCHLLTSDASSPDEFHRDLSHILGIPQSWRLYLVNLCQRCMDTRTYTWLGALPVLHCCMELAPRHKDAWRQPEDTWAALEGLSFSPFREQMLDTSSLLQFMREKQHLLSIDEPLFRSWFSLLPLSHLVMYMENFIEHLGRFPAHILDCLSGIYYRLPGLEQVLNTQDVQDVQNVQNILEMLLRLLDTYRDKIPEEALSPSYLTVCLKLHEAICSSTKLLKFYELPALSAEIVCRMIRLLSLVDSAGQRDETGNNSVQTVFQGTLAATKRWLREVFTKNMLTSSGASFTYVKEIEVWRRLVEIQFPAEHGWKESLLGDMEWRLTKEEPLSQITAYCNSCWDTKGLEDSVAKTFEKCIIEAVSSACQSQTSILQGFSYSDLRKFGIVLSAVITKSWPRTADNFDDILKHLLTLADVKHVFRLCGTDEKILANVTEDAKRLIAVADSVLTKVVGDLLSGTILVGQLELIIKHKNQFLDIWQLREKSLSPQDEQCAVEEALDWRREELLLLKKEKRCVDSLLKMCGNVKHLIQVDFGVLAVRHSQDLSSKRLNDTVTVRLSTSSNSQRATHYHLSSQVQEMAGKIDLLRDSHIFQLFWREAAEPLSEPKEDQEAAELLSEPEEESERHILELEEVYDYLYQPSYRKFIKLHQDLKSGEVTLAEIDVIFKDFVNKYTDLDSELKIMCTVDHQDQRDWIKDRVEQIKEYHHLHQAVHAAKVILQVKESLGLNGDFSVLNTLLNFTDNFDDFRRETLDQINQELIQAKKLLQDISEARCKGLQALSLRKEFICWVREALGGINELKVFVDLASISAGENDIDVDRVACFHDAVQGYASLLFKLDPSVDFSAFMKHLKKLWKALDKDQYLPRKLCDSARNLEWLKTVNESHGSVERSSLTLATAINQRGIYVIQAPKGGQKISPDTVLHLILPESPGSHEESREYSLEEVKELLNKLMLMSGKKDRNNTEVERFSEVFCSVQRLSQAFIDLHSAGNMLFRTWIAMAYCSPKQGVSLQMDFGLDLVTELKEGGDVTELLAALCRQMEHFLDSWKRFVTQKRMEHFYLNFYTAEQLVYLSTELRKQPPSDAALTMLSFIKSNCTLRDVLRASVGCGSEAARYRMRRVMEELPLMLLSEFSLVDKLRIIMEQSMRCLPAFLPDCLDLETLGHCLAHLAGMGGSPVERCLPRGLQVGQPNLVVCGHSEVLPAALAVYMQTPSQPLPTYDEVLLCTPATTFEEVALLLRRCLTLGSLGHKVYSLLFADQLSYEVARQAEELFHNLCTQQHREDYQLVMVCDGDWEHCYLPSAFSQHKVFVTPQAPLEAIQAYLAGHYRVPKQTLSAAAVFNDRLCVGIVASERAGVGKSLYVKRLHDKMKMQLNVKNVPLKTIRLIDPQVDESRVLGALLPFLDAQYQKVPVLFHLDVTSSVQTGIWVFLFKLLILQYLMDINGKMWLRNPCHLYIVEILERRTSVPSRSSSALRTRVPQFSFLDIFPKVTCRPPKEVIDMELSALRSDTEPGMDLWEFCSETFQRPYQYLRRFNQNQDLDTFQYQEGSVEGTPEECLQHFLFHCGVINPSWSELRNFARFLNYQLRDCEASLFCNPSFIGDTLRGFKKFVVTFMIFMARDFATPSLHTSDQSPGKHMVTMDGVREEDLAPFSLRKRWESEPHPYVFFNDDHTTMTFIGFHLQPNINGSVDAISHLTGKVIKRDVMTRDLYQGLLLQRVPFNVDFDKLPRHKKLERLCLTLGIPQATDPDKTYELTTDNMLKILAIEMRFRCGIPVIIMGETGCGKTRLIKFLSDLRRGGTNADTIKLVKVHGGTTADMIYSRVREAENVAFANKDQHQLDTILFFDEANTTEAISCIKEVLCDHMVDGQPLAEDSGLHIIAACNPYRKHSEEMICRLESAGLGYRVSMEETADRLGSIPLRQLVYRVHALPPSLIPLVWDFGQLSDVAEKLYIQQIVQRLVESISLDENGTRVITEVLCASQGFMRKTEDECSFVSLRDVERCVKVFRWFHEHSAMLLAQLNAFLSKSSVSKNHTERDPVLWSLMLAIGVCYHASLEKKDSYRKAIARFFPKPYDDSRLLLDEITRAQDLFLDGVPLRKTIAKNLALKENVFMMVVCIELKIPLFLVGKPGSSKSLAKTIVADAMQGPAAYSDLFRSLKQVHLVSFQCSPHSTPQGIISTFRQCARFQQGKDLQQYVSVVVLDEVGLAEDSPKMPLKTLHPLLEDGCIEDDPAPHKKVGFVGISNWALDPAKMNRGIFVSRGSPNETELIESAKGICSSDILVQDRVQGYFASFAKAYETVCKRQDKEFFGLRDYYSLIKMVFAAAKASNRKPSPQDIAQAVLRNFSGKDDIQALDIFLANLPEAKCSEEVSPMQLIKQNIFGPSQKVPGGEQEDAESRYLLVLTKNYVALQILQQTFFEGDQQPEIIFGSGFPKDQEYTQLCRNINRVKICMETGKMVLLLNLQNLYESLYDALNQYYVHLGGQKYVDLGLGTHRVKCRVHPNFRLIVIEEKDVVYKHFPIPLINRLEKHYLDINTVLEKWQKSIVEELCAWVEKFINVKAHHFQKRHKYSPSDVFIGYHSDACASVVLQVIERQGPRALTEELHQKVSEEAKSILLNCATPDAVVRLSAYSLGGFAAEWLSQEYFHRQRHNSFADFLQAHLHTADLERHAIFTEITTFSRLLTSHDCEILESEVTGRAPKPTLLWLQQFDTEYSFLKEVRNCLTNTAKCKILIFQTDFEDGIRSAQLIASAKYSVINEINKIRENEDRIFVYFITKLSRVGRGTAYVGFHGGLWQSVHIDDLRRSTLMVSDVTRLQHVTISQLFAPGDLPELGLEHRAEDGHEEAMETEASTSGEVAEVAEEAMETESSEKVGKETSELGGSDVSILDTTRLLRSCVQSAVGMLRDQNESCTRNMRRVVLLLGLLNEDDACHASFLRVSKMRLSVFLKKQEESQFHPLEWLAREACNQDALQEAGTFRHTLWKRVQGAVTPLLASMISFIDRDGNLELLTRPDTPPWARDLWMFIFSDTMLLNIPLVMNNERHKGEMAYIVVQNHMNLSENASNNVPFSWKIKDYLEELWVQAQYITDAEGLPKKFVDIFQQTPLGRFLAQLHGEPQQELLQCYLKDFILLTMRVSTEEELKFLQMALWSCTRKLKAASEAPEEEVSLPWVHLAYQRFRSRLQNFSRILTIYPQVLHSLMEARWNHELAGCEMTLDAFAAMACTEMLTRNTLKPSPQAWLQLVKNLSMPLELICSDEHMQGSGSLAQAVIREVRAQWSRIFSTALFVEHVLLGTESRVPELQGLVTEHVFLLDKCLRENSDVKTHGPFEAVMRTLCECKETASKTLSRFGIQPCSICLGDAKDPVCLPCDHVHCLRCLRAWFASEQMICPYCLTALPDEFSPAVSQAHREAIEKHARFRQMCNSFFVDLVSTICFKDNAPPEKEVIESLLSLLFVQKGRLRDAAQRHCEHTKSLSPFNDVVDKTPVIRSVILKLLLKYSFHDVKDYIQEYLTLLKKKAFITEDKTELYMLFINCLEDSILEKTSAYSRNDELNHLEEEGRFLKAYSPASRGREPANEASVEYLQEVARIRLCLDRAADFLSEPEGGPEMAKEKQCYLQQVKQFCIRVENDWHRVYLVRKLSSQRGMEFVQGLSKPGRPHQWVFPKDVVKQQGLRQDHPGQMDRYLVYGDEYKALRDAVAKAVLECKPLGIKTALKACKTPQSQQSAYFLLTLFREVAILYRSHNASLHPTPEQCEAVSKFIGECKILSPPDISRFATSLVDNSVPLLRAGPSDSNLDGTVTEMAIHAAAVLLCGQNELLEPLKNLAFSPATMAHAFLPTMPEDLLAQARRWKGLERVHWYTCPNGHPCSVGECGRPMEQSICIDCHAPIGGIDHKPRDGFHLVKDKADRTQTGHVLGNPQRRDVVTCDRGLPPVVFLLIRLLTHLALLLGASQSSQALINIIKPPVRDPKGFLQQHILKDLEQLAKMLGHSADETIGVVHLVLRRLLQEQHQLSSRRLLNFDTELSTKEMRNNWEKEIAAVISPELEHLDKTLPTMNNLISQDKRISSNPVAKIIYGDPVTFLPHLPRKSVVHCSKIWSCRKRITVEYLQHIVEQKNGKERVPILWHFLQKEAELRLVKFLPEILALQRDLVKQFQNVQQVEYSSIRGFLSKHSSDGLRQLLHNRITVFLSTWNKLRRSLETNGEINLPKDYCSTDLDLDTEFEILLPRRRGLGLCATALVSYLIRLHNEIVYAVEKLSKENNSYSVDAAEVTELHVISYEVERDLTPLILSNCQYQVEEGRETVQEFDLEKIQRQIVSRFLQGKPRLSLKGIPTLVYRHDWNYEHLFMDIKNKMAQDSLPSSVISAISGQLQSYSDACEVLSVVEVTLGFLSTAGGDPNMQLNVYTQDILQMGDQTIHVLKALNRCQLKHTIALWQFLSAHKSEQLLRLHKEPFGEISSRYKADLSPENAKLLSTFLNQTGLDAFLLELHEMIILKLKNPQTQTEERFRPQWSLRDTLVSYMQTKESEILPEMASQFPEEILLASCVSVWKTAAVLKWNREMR

B1: CYLD (enzyme, Homo sapiens, UniProt Q9NQC7-2 1-953, looked up)
chain: MSSGLWSQEKVTSPYWEERIFYLLLQECSVTDKQTQKLLKVPKGSIGQYIQDRSVGHSRIPSAKGKKNQIGLKILEQPHAVLFVDEKDVVEINEKFTELLLAITNCEERFSLFKNRNRLSKGLQIDVGCPVKVQLRSGEEKFPGVVRFRGPLLAERTVSGIFFGVELLEEGRGQGFTDGVYQGKQLFQCDEDCGVFVALDKLELIEDDDTALESDYAGPGDTMQVELPPLEINSRVSLKVGETIESGTVIFCDVLPGKESLGYFVGVDMDNPIGNWDGRFDGVQLCSFACVESTILLHINDIIPESVTQERRPPKLAFMSRGVGDKGSSSHNKPKATGSTSDPGNRNRSELFYTLNGSSVDSQPQSKSKNTWYIDEVAEDPAKSLTEISTDFDRSSPPLQPPPVNSLTTENRFHSLPFSLTKMPNTNGSIGHSPLSLSAQSVMEELNTAPVQESPPLAMPPGNSHGLEVGSLAEVKENPPFYGVIRWIGQPPGLNEVLAGLELEDECAGCTDGTFRGTRYFTCALKKALFVKLKSCRPDSRFASLQPVSNQIERCNSLAFGGYLSEVVEENTPPKMEKEGLEIMIGKKKGIQGHYNSCYLDSTLFCLFAFSSVLDTVLLRPKEKNDVEYYSETQELLRTEIVNPLRIYGYVCATKIMKLRKILEKVEAASGFTSEEKDPEEFLNILFHHILRVEPLLKIRSAGQKVQDCYFYQIFMEKNEKVGVPTIQQLLEWSFINSNLKFAEAPSCLIIQMPRFGKDFKLFKKIFPSLELNITDLLEDTPRQCRICGGLAMYECRECYDDPDISAGKIKQFCKTCNTQVHLHPKRLNHKYNPVSLPKDLPDWDWRHGCIPCQNMELFAVLCIETSHYVAFVKYGKDDSAWLFFDSMADRDGGQNGFNIPQVTPCPEVGEYLKMSLEDLHSLDSRRIQGCARRLLCDAYMCMYQSPTMSLYK
notes: Endogenous protein in cell lysates; the isoform is the one matched by MS; also called Ubiquitin carboxyl-terminal hydrolase CYLD
As for B1, the binding result in the assay with 3×-FLAG-RNF213 and in the assay with RNF213-TurboID was “binds” in each case.

B2: SPATA2 (other, human, UniProt Q9UM82 1-520, looked up)
chain: MGKPSSMDTKFKDDLFRKYVQFHESKVDTTTSRQRPGSDECLRVAASTLLSLHKVDPFYRFRLIQFYEVVESSLRSLSSSSLRALHGAFSMLETVGINLFLYPWKKEFRSIKTYTGPFVYYVKSTLLEEDIRAILSCMGYTPELGTAYKLRELVETLQVKMVSFELFLAKVECEQMLEIHSQVKDKGYSELDIVSERKSSAEDVRGCSDALRRRAEGREHLTASMSRVALQKSASERAAKDYYKPRVTKPSRSVDAYDSYWESRKPPLKASLSLRKEPVATDVGDDLKDEIIRPSPSLLTMASSPHGSPDVLPPASPSNGPALLRGTYFSTQDDVDLYTDSEPRATYRRQDALRPDVWLLRNDAHSLYHKRSPPAKESALSKCQSCGLSCSSSLCQRCDSLLTCPPASKPSAFPSKASTHDSLAHGASLREKYPGQTQGLDRLPHLHSKSKPSTTPTSRCGFCNRPGATNTCTQCSKVSCDACLSAYHYDPCYKKSELHKFMPNNQLNYKSTQLSHLVYR
notes: Endogenous protein in cell lysates
On to B2, for which the binding result in the assay with 3×-FLAG-RNF213 and in the assay with RNF213-TurboID was “binds” each time.

B3: CYP51A1 (enzyme, Homo sapiens, UniProt Q16850-2 1-404, looked up)
chain: MVGKTFTYLLGSDAAALLFNSKNEDLNAEDVYSRLTTPVFGKGVAYDVPNPVFLEQKKMLKSGLNIAHFKQHVSIIEKETKEYFESWGESGEKNVFEALSELIILTASHCLHGKEIRSQLNEKVAQLYADLDGGFSHAAWLLPGWLPLPSFRRRDRAHREIKDIFYKAIQKRRQSQEKIDDILQTLLDATYKDGRPLTDDEVAGMLIGLLLAGQHTSSTTSAWMGFFLARDKTLQKKCYLEQKTVCGENLPPLTYDQLKDLNLLDRCIKETLRLRPPIMIMMRMARTPQTVAGYTIPPGHQVCVSPTVNQRLKDSWVERLDFNPDRYLQDNPASGEKFAYVPFGAGRHRCIGENFAYVQIKTIWSTMLRLYEFDLIDGYFPTVNYTTMIHTPENPVIRYKRRSK
notes: Endogenous protein found by proximity labelling/MS; also called Lanosterol 14-alpha demethylase
B3: in the assay with TurboID-RNF213, the binding result is on record as “binds”.

The values above are taken from patent publication US20250025478A1 (published 2025).
